Values joined by “and” are separate entries in the source; they are usually repeats but may differ in a detail not shown here. Equal entries are not always repeated.
B1: 346C6-zu (antibody, human IgG1, kappa, V domains shown)
VH: EVQLVESGGGLVQPGGSLRLSCAASGFSLSSYAMIWVRQAPGKGLEWIGTISTGGITYYASWAKGRFTISRDNSKNTLYLQMNSLRAEDTAVYYCARGGYAASSAYYLPYYFDLWGQGTLVTVSS
VL: DIQMTQSPSSLSASVGDRVTITCQSSQSVYNNNNLAWYQQKPGKVPKLLIYLASTLASGVPSRFSGSGSGTDFTLTISSLQCEDAATYYCLGGCDDDADTFAFGGGTKVEIKR
notes: Humanized anti-human mesothelin with unpaired cysteine at LCcys80; parental mAb in Biacore
B2: 346C6-xi (antibody, human IgG1, kappa, V domains shown)
VH: QSVEESGGRLVKPDESLTLTCTASGFSLSSYAMIWVRQAPGEGLEWIGTISTGGITYYASWAKGRFTISKTSTTVDLKITSPTTEDTATYFCARGGYAASSAYYLPYYFDLWGQGTLVTVSS
VL: AAVLTQTPSPVSAAVGGTVTISCQSSQSVYNNNNLAWFQQKPGQPPKLLIYLASTLASGVPSRFSGSGSGTQFTLTISGVQCDDAATYYCLGGCDDDADTFAFGGGTEVVVKR
notes: Rabbit-human chimeric anti-human mesothelin with unpaired cysteine at LCcys80; parental mAb in Biacore
B3: 201C15-xi (antibody, human IgG1, kappa, V domains shown)
VH: QSVKESGGRLVTPGTPLTLTCTVSGIDLSSYAMGWFRQAPGKGLEYIGTINIGGRVYYASWAKGRFTISRTSTTVDLKAPSLTAEDTATYFCARYYNGGSYDIWGPGTLVTVSL
VL: DVVMTQTPASASEPVGGTVTIKCQASESIYRVLAWYQQKPGQPPKLLIYDTSTLASGAPSRFKGSGYGTEFTLTISGVQCEDAATYYCQGGYYADSYGIAFGGGTEVVVKR
notes: as for B2
B4: 33011-zu (antibody, human IgG1, kappa, V domains shown)
VH: EVQLVESGGGLVQPGGSLRLSCAASGISLSSDAISWVRQAPGKGLEYIGIINGGGNTYYASWAKGRFTISRHNSKNTLYLQMNSLRAEDTAVYYCARGIQHGGGNSDYYYYGMDLWGQGTLVTVSS
VL: DIQMTQSPSSLSASVGDRVTITCQASQSISSVLSWYQQKPGKAPKLLIYLASTLASGVPSRFSGSGSGTDFTLTISSLQCEDIATYYCQTNYGTSSSNYGFAFGGGTKVEIKR
notes: Humanized anti-human mesothelin with unpaired cysteine at LCcys80; parental (unconjugated) mAb in Biacore; also called 33O11 zu
B5: 111B10-zu (antibody, human IgG1, kappa, V domains shown)
VH: EVQLVESGGGLVQPGGSLRLSCAASGFSLNNYAMSWVRQAPGKGLEWIGSISTGGLAFYANWAKGRFTISRDNSKNTLYLQMNSLRAEDTAVYYCARNGGGSYIFYYFDLWGQGTLVTVSS
VL: DIQMTQSPSSLSASVGDRVTITCQASQSISSYLSWYQQKPGKAPKLLIYSASTLASGVPSRFSGSGSGTDFTLTISSLQCEDAATYYCQSYYDIGTSTFGGGTKVEIKR
notes: Humanized anti-human mesothelin with unpaired cysteine at LCcys80; parental mAb in Biacore; also called 111810 zu
B6: MORAb-003 (antibody, human IgG1, kappa, V domains shown)
VH: EVQLVESGGGVVQPGRSLRLSCSASGFTFSGYGLSWVRQAPGKGLEWVAMISSGGSYTYYADSVKGRFAISRDNAKNTLFLQMDSLRPEDTGVYFCARHGDDPAWFAYWGQGTPVTVSS
VL: DIQLTQSPSSLSASVGDRVTITCSVSSSISSNNLHWYQQKPGKAPKPWIYGTSNLASGVPSRFSGSGSGTDYTFTISSLQPEDIATYYCQQWSSYPYMYTFGQGTKVEIKR
notes: Humanized anti-human folate receptor alpha, unconjugated; also called farletuzumab
B7: MORAb003-ER1242288 (antibody, human IgG1, kappa, V domains shown)
VH: B6 VH
VL: B6 VL
modifications: NHS-PEG9-Val-Cit-pAB-eribulin on lysines, sites not given
notes: Antibody-drug conjugate preparation; DAR 0.00 (LC-MS)
B8: MORAb003-DBCO-PEG4 VCP eribulin (antibody, human IgG1, kappa, V domains shown)
VH: B6 VH
VL: B6 VL
modifications: NHS-PEG4-DBCO on lysines, then azido-PEG4-Val-Cit-pAB-eribulin by SPAAC; sites not given
notes: Antibody-drug conjugate
B9: MORAb003-DBCO-ER1237508 (antibody, human IgG1, kappa, V domains shown)
VH: B6 VH
VL: B6 VL
modifications: NHS-PEG4-DBCO on lysines, then azide-PEG3-disulfide-pAB-eribulin by SPAAC; sites not given
notes: Antibody-drug conjugate
B10: MORAb003-ER1237505 (antibody, human IgG1, kappa, V domains shown)
VH: B6 VH
VL: B6 VL
modifications: Mal-PEG4-triazole-PEG3-sulfonamide-pAB-eribulin on interchain cysteines, sites not given
notes: Antibody-drug conjugate
B11: MORAb003-ER1231679 (antibody, human IgG1, kappa, V domains shown)
VH: B6 VH
VL: B6 VL
modifications: Mal-PEG2-Ala-Ala-Asn-pAB-eribulin on interchain cysteines, sites not given
notes: Antibody-drug conjugate
B12: MORAb003-DBCO-PEG4 eribulin (antibody, human IgG1, kappa, V domains shown)
VH: B6 VH
VL: B6 VL
modifications: NHS-PEG4-DBCO on lysines, then azido-PEG4-eribulin by SPAAC; sites not given
notes: Antibody-drug conjugate
B13: MORAb003-ER1243700 (antibody, human IgG1, kappa, V domains shown)
VH: B6 VH
VL: B6 VL
modifications: NHS-PEG3-triazole-PEG3-Val-Cit-pAB-eribulin on lysines, sites not given
notes: as for B7
B14: MORAb003-ER1231690 (antibody, human IgG1, kappa, V domains shown)
VH: B6 VH
VL: B6 VL
modifications: Mal-PEG2-(Ala-Ala-Asn-pAB)2-eribulin on interchain cysteines, sites not given
notes: Antibody-drug conjugate
B15: MORAb003-ER1236941 (antibody, human IgG1, kappa, V domains shown)
VH: B6 VH
VL: B6 VL
modifications: NHS-(CH2)5-Val-Cit-pAB-eribulin on lysines, sites not given
notes: Antibody-drug conjugate; DAR 0.77 (LC-MS)
B16: MORAb003-ER1159569 (Lot NB3073-88L) (antibody, human IgG1, kappa, V domains shown)
VH: B6 VH
VL: B6 VL
modifications: Mal-PEG2-Val-Cit-pAB-eribulin on interchain cysteines, sites not given
notes: Antibody-drug conjugate; also called MORAb-003-VCP-eribulin
B17: MORAb003-ER1244129 (antibody, human IgG1, kappa, V domains shown)
VH: B6 VH
VL: B6 VL
modifications: NHS-PEG3-triazole-PEG3-disulfide-pAB-eribulin on lysines, sites not given
notes: Antibody-drug conjugate; DAR 0.24 (LC-MS)
B18: MORAb003-ER1236940 (antibody, human IgG1, kappa, V domains shown)
VH: B6 VH
VL: B6 VL
modifications: NHS-PEG2-Val-Cit-pAB-eribulin on lysines, sites not given
notes: Antibody-drug conjugate; DAR 0.72 (LC-MS)
B19: MORAb003-ER1237504 (antibody, human IgG1, kappa, V domains shown)
VH: B6 VH
VL: B6 VL
modifications: Mal-PEG4-triazole-PEG3-disulfide-pAB-eribulin on interchain cysteines, sites not given
notes: Antibody-drug conjugate
B20: MORAb003-ER1244623 (antibody, human IgG1, kappa, V domains shown)
VH: B6 VH
VL: B6 VL
modifications: NHS-PEG3-triazole-PEG3-sulfonamide-pAB-eribulin on lysines, sites not given
notes: Antibody-drug conjugate; DAR 0.55 (LC-MS)
B21: MORAb003-ER1159569 (Lot NB3142-62A) (antibody, human IgG1, kappa, V domains shown)
VH: B6 VH
VL: B6 VL
modifications: Mal-PEG2-Val-Cit-pAB-eribulin on interchain cysteines, sites not given
notes: as for B16
B22: MORAb003-ER1235638 (antibody, human IgG1, kappa, V domains shown)
VH: B6 VH
VL: B6 VL
modifications: Mal-(CH2)5-Val-Cit-pAB-eribulin on interchain cysteines, sites not given
notes: Antibody-drug conjugate
B23: MORAb003-ER1231691 (antibody, human IgG1, kappa, V domains shown)
VH: B6 VH
VL: B6 VL
modifications: NHS-PEG2-Ala-Ala-Asn-pAB-eribulin on lysines, sites not given
notes: Antibody-drug conjugate; DAR 0.37 (LC-MS)
B24: MORAb003-DBCO-ER1138856 (antibody, human IgG1, kappa, V domains shown)
VH: B6 VH
VL: B6 VL
modifications: NHS-PEG4-DBCO on lysines, then azide-PEG3-sulfonamide-pAB-eribulin by SPAAC; sites not given
notes: Antibody-drug conjugate
B25: MORAb003-PEG4-eribulin (antibody, human IgG1, kappa, V domains shown)
VH: B6 VH
VL: B6 VL
modifications: Mal-PEG4-eribulin (non-cleavable) on interchain cysteines, sites not given
notes: Antibody-drug conjugate
B26: MORAb003-PEG2-eribulin (antibody, human IgG1, kappa, V domains shown)
VH: B6 VH
VL: B6 VL
modifications: Mal-PEG2-eribulin (non-cleavable) on interchain cysteines, sites not given
notes: Antibody-drug conjugate
B27: MORAb003-ER1242287 (antibody, human IgG1, kappa, V domains shown)
VH: B6 VH
VL: B6 VL
modifications: Mal-PEG8-Val-Cit-pAB-eribulin on interchain cysteines, sites not given
notes: Antibody-drug conjugate
B28: MORAb003-DBCO-PEG2 eribulin (antibody, human IgG1, kappa, V domains shown)
VH: B6 VH
VL: B6 VL
modifications: NHS-PEG4-DBCO on lysines, then azido-PEG2-eribulin by SPAAC; sites not given
notes: Antibody-drug conjugate
B29: 201C15-zu (antibody, human IgG1, kappa, V domains shown)
VH: QVQLVESGGGLVQPGGSLRLSCSASGIDLSSYAMGWVRQAPGKGLEYIGTINIGGRVYYASWAKGRFTISRDNSKNTLYLQMNSLRAEDTAVYYCARYYNGGSYDIWGQGTLVTVSS
VL: DIQMTQSPSTLSASVGDRVTITCQASESIYRVLAWYQQKPGKAPKLLIYDTSTLASGVPSRFSGSGSGTEFTLTISSLQCDDAATYYCQGGYYADSYGIAFGGGTKVEIKR
notes: as for B1

Experiments:
[1] = biological target: T1, Recombinant human mesothelin (human, UniProt Q13421 296-580, limits assumed); experiment: Biacore T100, antibody captured on anti-human IgG, antigen injected, 1:1 Langmuir
T1 construct: also called MSLN
Experimental: Antibody concentrations were adjusted to 2 μg/mL in HBS-P+ buffer (GE Healthcare). Unmodified antibodies, or ADCs, were injected over an anti-human IgG sensor on a BIAcore T100 (GE Healthcare) for 1 min at a flow rate of 10 μL/min. To record the antigen association to the captured antibody, a series of increasing concentrations of antigen was injected for 300 sec at a flow rate of 30 μL/min. […] The dissociation of antigen was monitored for 30 min at the same flow rate. The sensor surface was regenerated by injecting 3 M MgCl₂ for 2×30 sec at a flow rate of 30 μL/min. Sensograms were analyzed with Biacore T100 Evaluation Software using a 1:1 Langmuir binding model.
Binding affinities of the parental antibodies were determined by Biacore analysis, as described above in section 1.6.1. Aggregation levels for all anti-human mesothelin ADCs were determined by SEC-HPLC and the DAR was analyzed using HIC-HPLC. In vitro potency was evaluated using a Crystal Violet cell-based cytotoxicity assay in A3 (A431 stabily transfected with human mesothelin (MSLN), MSLN^hi), OVCAR3 (human ovarian, MSLN^hi), HEC-251 (human endometroid, MSLN^med), H226 (human lung squamous cell mesothelioma, MSLN^lo, and A431 parental (MSLN^neg) cells. The results of the DAR, aggregation, and cytotoxicity analyses are shown in Table 50.

[2] = biological target: T2, Recombinant human folate receptor alpha (human, UniProt P15328 25-234); experiment: ELISA, recombinant human FRA coated
T2 construct: also called FRA; FR
Experimental: Coating solution was discarded and the plates were washed three times using 1× PBS with 0.05% Tween-20 (PBST) buffer. Plates were blocked in 300 μL blocking buffer (1% BSA in PBST) at room temperature for 2 hours on an orbital shaker. […] Blocking buffer was discarded and 100 μL/well of diluted antibody was added to the plates. Plates were incubated at room temperature for 2 hours on an orbital shaker. Antibody solution was discarded and plates were washed three times using PBST. 100 μL/well of goat-anti-human IgG (H+L)-HRP (1:10,000 dilution in blocking buffer) solution was added to the plates, and plates were incubated at room temperature for 1 hour on an orbital shaker. Secondary antibody solution was discarded and plates were washed three times using PBST. 100 μL/well of QuantaBlu fluorogenic peroxidase substrate working solution (Thermo, Cat No. 15169) was added to the plates, and plates were incubated at room temperature for 30 min. Fluorescence was read at excitation 325 nm/emission 420 nm using a SpectraMax M5 (Molecular Devices). Data was analyzed using SoftMaxPro 5.4.2 software with 4-parameter fitting.

T2 sequence (P15328 25-234 limits assumed): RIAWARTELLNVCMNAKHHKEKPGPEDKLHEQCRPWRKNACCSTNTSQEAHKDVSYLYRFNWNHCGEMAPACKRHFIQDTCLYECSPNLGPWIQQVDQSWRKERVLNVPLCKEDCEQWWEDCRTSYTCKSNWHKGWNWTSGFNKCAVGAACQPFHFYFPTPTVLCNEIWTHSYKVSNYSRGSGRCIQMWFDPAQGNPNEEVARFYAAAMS
T1 sequence (Q13421 other isoform, or with tags, fused parts or gaps limits assumed): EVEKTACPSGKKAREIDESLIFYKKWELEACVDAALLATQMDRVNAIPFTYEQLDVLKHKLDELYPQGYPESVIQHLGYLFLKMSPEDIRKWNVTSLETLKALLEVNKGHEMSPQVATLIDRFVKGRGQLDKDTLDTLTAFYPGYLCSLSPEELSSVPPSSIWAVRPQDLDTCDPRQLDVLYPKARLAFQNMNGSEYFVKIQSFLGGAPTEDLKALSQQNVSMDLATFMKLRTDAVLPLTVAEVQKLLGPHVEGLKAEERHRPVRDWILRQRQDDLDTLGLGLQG

Row | Binder | Kd [1] | EC50 [2]
1 | B1 | 6.9 nM | –
2 | B2 | 1.4 nM | –
3 | B3 | 1.1 nM | –
4 | B4 | 3.4 nM | –
5 | B5 | 8.5 nM | –
6 | B6 | – | 0.00629 µg/mL and 0.04 nM
7 | B7 | – | 0.0144 µg/mL and 0.1 nM
8 | B8 | – | 0.016 µg/mL and 0.11 nM
9 | B9 | – | 0.0241 µg/mL and 0.16 nM
10 | B10 | – | 0.0183 µg/mL and 0.12 nM
11 | B11 | – | 0.0183 µg/mL and 0.12 nM
12 | B12 | – | 0.0133 µg/mL and 0.09 nM
13 | B13 | – | 0.00622 µg/mL and 0.04 nM
14 | B14 | – | 0.00892 µg/mL and 0.06 nM
15 | B15 | – | 0.013 µg/mL and 0.09 nM
16 | B16 | – | 0.0226 µg/mL and 0.15 nM
17 | B17 | – | 0.0143 µg/mL and 0.1 nM
18 | B18 | – | 0.017 µg/mL and 0.11 nM
19 | B19 | – | 0.0298 µg/mL and 0.2 nM
20 | B20 | – | 0.00454 µg/mL and 0.03 nM
21 | B21 | – | 0.12 nM and 0.0182 µg/mL
22 | B22 | – | 0.0153 µg/mL and 0.1 nM
23 | B23 | – | 0.0115 µg/mL and 0.08 nM
24 | B24 | – | 0.015 µg/mL and 0.1 nM
25 | B25 | – | 0.00931 µg/mL and 0.06 nM
26 | B26 | – | 0.00696 µg/mL and 0.05 nM
27 | B27 | – | 0.0215 µg/mL and 0.14 nM
28 | B28 | – | 0.0191 µg/mL and 0.13 nM
29 | B29 | 4.2 nM | –

From patent US20170252458A1 (EISAI R AND D MANAGEMENT, published 2017)
